According to patent US20160264649A1:

Key:
Assay in all cases: cell-based or functional assay
[1] = target: HIV-1 92RW008 Env (HIV-1)
[2] = target: HIV-1 92TH021 Env (HIV-1)
[3] = target: HIV-1 92UG031 Env (HIV-1)
[4] = target: HIV-1 92UG037 Env (HIV-1)
[5] = target: HIV-1 92WR009 Env (HIV-1)
[6] = target: HIV-1 92WR020 Env (HIV-1)
[7] = target: HIV-1 92WR021 Env (HIV-1)
[8] = target: HIV-1 92WR024 Env (HIV-1)
[9] = target: HIV-1 92WR026 Env (HIV-1)
[10] = target: HIV-1 93UG077 Env (HIV-1)
[11] = target: HIV-1 93WR029 Env (HIV-1)
[12] = target: HIV-1 94KE105 Env (HIV-1)
[13] = target: HIV-1 94UG103 Env (HIV-1)
HIV-1 CMU02 Env (HIV-1) = target: HIV-1 CMU02 Env (HIV-1)
[14] = target: HIV-1 Env of isolate MG RM-C-019 (subtype C) (HIV-1)
[15] = target: HIV-1 Env of isolate MG RM-C-020 (subtype C) (HIV-1)
[16] = target: HIV-1 Env of isolate MG RM-C-022 (subtype C) (HIV-1)
[17] = target: HIV-1 Env of isolate MG RM-C-023 (subtype C) (HIV-1)
[18] = target: HIV-1 Env of isolate MG RM-C-024 (subtype C) (HIV-1)
[19] = target: HIV-1 Env of isolate MG RM-C-025 (subtype C) (HIV-1)
[20] = target: HIV-1 Env of isolate MG RM-C-026 (subtype C) (HIV-1)
[21] = target: HIV-1 Env of isolate MG RM-C-027 (subtype C) (HIV-1)
[22] = target: HIV-1 Env of isolate MG RM-C-028 (subtype C) (HIV-1)
[23] = target: HIV-1 MGRM-A-001 Env (HIV-1)
[24] = target: HIV-1 MGRM-A-002 Env (HIV-1)
[25] = target: HIV-1 MGRM-A-003 Env (HIV-1)
[26] = target: HIV-1 MGRM-A-004 Env (HIV-1)
[27] = target: HIV-1 MGRM-A-005 Env (HIV-1)
[28] = target: HIV-1 MGRM-A-006 Env (HIV-1)
[29] = target: HIV-1 MGRM-A-007 Env (HIV-1)
[30] = target: HIV-1 MGRM-A-008 Env (HIV-1)
[31] = target: HIV-1 MGRM-A-009 Env (HIV-1)
[32] = target: HIV-1 MGRM-A-010 Env (HIV-1)
[33] = target: HIV-1 MGRM-A-011 Env (HIV-1)
[34] = target: HIV-1 MGRM-A-012 Env (HIV-1)
[35] = target: HIV-1 MGRM-A-013 Env (HIV-1)
[36] = target: HIV-1 MGRM-A-014 Env (HIV-1)
[37] = target: HIV-1 MGRM-AE-001 Env (HIV-1)
[38] = target: HIV-1 MGRM-AE-002 Env (HIV-1)
[39] = target: HIV-1 MGRM-AE-003 Env (HIV-1)
[40] = target: HIV-1 MGRM-AE-004 Env (HIV-1)
[41] = target: HIV-1 MGRM-AE-005 Env (HIV-1)
[42] = target: HIV-1 MGRM-AE-006 Env (HIV-1)
[43] = target: HIV-1 MGRM-AE-007 Env (HIV-1)
[44] = target: HIV-1 MGRM-AE-008 Env (HIV-1)
[45] = target: HIV-1 MGRM-AG-001 Env (HIV-1)
[46] = target: HIV-1 MGRM-AG-002 Env (HIV-1)
[47] = target: HIV-1 MGRM-AG-003 Env (HIV-1)
[48] = target: HIV-1 MGRM-AG-005 Env (HIV-1)
[49] = target: HIV-1 MGRM-AG-006 Env (HIV-1)
[50] = target: HIV-1 MGRM-AG-008 Env (HIV-1)
[51] = target: HIV-1 MGRM-AG-009 Env (HIV-1)
[52] = target: HIV-1 MGRM-AG-011 Env (HIV-1)
[53] = target: HIV-1 MGRM-AG-012 Env (HIV-1)
[54] = target: HIV-1 MGRM-AG-013 Env (HIV-1)
HIV-1 VLGCA1 Env (HIV-1) = target: HIV-1 VLGCA1 Env (HIV-1)

Sequence of 5329_C19 (PGT-136) (antibody) (VH): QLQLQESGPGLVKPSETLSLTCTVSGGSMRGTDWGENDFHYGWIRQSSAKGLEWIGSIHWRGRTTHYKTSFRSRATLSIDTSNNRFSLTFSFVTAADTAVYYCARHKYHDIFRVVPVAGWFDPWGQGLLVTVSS
Sequence of 5329_C19 (PGT-136) (antibody) (VL): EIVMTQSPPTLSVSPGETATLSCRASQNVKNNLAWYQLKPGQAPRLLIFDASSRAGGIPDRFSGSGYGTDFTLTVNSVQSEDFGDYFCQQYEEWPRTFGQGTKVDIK

## 5147_N06 (PGT-130) (antibody)
[1]
  IC50: 0.089 µg/mL
[2]
  IC50: 9 ng/mL
[3]
  IC50: > 50 µg/mL
[4]
  IC50: 0.061 µg/mL
[5]
  IC50: 1.27 µg/mL
[6]
  IC50: 0.039 µg/mL
[7]
  IC50: 4 ng/mL
[8]
  IC50: > 50 µg/mL
[9]
  IC50: 0.037 µg/mL
[10]
  IC50: 21.4 µg/mL
[11]
  IC50: 34.3 µg/mL
[12]
  IC50: 4 ng/mL
[13]
  IC50: 1.4 µg/mL
HIV-1 CMU02 Env (HIV-1)
  IC50: > 50 µg/mL
[14]
  IC50: 0.01 µg/mL
[15]
  IC50: > 50 µg/mL
[16]
  IC50: 0.127 µg/mL
[17]
  IC50: 0.151 µg/mL
[18]
  IC50: > 50 µg/mL
[19]
  IC50: > 50 µg/mL
[20]
  IC50: 0.036 µg/mL
[21]
  IC50: 8 ng/mL
[22]
  IC50: > 50 µg/mL
[23]
  IC50: > 50 µg/mL
[24]
  IC50: 0.01 µg/mL
[25]
  IC50: > 50 µg/mL
[26]
  IC50: > 50 µg/mL
[27]
  IC50: > 50 µg/mL
[28]
  IC50: > 50 µg/mL
[29]
  IC50: > 50 µg/mL
[30]
  IC50: > 50 µg/mL
[31]
  IC50: 0.308 µg/mL
[32]
  IC50: 5 ng/mL
[33]
  IC50: > 50 µg/mL
[34]
  IC50: > 50 µg/mL
[35]
  IC50: > 50 µg/mL
[36]
  IC50: 0.161 µg/mL
[37]
  IC50: 1 µg/mL
[38]
  IC50: 1.53 µg/mL
[39]
  IC50: 0.337 µg/mL
[40]
  IC50: 2.43 µg/mL
[41]
  IC50: 6 ng/mL
[42]
  IC50: 9 ng/mL
[43]
  IC50: 0.083 µg/mL
[44]
  IC50: > 50 µg/mL
[45]
  IC50: > 50 µg/mL
[46]
  IC50: > 50 µg/mL
[47]
  IC50: 0.041 µg/mL
[48]
  IC50: 0.54 µg/mL
[49]
  IC50: 0.009 µg/mL
[50]
  IC50: > 50 µg/mL
[51]
  IC50: 9.46 µg/mL
[52]
  IC50: > 50 µg/mL
[53]
  IC50: > 50 µg/mL
[54]
  IC50: 0.01 µg/mL
HIV-1 VLGCA1 Env (HIV-1)
  IC50: > 50 µg/mL

## 5329_C19 (PGT-136) (antibody)
[1]
  IC50: > 50 µg/mL
[2]
  IC50: > 50000 ng/mL
[3]
  IC50: > 50 µg/mL
[4]
  IC50: > 50 µg/mL
[5]
  IC50: > 50 µg/mL
[6]
  IC50: 2.33 µg/mL
[7]
  IC50: > 50000 ng/mL
[8]
  IC50: > 50 µg/mL
[9]
  IC50: > 50 µg/mL
[10]
  IC50: > 50 µg/mL
[11]
  IC50: > 50 µg/mL
[12]
  IC50: > 50000 ng/mL
[13]
  IC50: > 50 µg/mL
HIV-1 CMU02 Env (HIV-1)
  IC50: > 50 µg/mL
[14]
  IC50: 20.1 µg/mL
[15]
  IC50: > 50 µg/mL
[16]
  IC50: > 50 µg/mL
[17]
  IC50: 3.2 µg/mL
[18]
  IC50: > 50 µg/mL
[19]
  IC50: > 50 µg/mL
[20]
  IC50: 0.006 µg/mL
[21]
  IC50: > 50000 ng/mL
[22]
  IC50: 33.7 µg/mL
[23]
  IC50: > 50 µg/mL
[24]
  IC50: > 50 µg/mL
[25]
  IC50: > 50 µg/mL
[26]
  IC50: > 50 µg/mL
[27]
  IC50: > 50 µg/mL
[28]
  IC50: > 50 µg/mL
[29]
  IC50: > 50 µg/mL
[30]
  IC50: > 50 µg/mL
[31]
  IC50: > 50 µg/mL
[32]
  IC50: > 50000 ng/mL
[33]
  IC50: > 50 µg/mL
[34]
  IC50: > 50 µg/mL
[35]
  IC50: > 50 µg/mL
[36]
  IC50: > 50 µg/mL
[37]
  IC50: > 50 µg/mL
[38]
  IC50: > 50 µg/mL
[39]
  IC50: > 50 µg/mL
[40]
  IC50: > 50 µg/mL
[41]
  IC50: > 50000 ng/mL
[42]
  IC50: > 50000 ng/mL
[43]
  IC50: > 50 µg/mL
[44]
  IC50: > 50 µg/mL
[45]
  IC50: > 50 µg/mL
[46]
  IC50: > 50 µg/mL
[47]
  IC50: > 50 µg/mL
[48]
  IC50: > 50 µg/mL
[49]
  IC50: 29.1 µg/mL
[50]
  IC50: > 50 µg/mL
[51]
  IC50: > 50 µg/mL
[52]
  IC50: > 50 µg/mL
[53]
  IC50: > 50 µg/mL
[54]
  IC50: > 50 µg/mL
HIV-1 VLGCA1 Env (HIV-1)
  IC50: > 50 µg/mL
